Experimental findings from patent publication US20160200782A1 (MOERAE MATRIX, published 2016) are described below.

Targets include MAPKAP-K2(h) (human, UniProt P49137 46-400); Met(h) (human, UniProt P08581 956-1390, limits assumed); NEK6(h) (human, UniProt Q9HC98 1-313); PAK6(h) (human, UniProt Q9NQU5 1-681, limits assumed); PTK5(h) (human, UniProt P42685 1-505, limits assumed); Ros(h) (human, UniProt P08922 1883-2347, limits assumed); CDK1/cyclinB(h) (human, UniProt P06493 1-297; P06493 1-297); CHK2(I157T)(h) (human, UniProt O96017 5-543, limits assumed); CLK3(h) (human, UniProt P49761 1-490, limits assumed); EGFR(T790M,L858R)(h) (human, UniProt P00533 696-1210, limits assumed); Fgr(h) (human, UniProt P09769 1-529, limits assumed).

Assay in all cases: cell-based or functional assay
A further test addresses T1, PDK1(h) (human, UniProt O15530 1-556, limits assumed).
T1 sequence (looked up): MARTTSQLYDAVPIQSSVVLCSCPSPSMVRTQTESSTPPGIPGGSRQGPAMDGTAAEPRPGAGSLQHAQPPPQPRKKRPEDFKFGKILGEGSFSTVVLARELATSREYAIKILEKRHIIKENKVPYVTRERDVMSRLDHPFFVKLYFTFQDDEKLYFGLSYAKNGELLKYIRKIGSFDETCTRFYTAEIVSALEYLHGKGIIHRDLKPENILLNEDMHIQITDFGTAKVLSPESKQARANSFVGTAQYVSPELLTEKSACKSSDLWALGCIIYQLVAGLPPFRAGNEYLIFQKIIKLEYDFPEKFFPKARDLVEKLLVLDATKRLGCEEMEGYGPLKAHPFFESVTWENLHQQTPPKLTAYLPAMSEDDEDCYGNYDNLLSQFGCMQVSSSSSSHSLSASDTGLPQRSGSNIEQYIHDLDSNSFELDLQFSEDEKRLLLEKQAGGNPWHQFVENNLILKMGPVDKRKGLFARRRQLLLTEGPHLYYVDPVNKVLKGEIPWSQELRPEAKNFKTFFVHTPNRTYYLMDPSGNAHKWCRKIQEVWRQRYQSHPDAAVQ

The next test addresses T2, TAO3(h) (human, UniProt Q9H2K8 1-315, limits assumed).
T2 sequence (looked up): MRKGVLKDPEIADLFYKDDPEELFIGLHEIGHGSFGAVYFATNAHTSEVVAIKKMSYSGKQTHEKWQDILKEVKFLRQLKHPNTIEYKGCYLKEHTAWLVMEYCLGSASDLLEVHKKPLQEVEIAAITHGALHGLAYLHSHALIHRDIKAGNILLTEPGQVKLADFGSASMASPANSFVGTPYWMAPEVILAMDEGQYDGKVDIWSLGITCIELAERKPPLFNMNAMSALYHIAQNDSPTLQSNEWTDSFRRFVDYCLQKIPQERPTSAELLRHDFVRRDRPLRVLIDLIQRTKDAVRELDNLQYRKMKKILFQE

For a further test, the target named is T3, Tec(h)activated (human, UniProt P42680 1-631, limits assumed).
T3 sequence (looked up): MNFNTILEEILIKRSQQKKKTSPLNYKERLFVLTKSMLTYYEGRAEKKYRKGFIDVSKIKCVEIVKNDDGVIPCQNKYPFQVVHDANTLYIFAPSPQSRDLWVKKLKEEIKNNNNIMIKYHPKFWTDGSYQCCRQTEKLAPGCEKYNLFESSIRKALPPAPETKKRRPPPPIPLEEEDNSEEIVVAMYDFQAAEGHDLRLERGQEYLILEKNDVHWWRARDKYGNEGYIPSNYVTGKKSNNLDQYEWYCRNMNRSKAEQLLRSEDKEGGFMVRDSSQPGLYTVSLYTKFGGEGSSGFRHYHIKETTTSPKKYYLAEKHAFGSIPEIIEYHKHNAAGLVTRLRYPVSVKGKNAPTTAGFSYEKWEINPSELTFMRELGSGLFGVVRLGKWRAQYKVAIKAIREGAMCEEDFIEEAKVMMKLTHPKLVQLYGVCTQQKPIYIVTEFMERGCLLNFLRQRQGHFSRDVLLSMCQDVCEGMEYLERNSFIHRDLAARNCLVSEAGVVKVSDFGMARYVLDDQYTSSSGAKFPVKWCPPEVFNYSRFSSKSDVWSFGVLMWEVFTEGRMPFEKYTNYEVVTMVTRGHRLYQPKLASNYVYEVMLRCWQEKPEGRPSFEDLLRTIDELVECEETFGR

Another test deals with T4, EphA2(h) (human, UniProt P29317 559-976, limits assumed).
T4 sequence (looked up): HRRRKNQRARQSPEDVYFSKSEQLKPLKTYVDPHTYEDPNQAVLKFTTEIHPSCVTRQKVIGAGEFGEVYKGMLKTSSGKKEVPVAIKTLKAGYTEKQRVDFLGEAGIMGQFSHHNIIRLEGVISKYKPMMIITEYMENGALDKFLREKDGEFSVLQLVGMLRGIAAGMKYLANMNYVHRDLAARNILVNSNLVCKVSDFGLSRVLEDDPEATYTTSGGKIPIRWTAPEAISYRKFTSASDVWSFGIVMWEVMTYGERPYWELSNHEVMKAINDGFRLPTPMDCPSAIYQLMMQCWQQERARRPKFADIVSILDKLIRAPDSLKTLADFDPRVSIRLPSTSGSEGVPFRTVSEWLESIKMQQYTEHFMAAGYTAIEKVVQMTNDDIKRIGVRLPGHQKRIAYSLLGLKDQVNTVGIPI
Note: test concentration or dose not given here.

B1: MMI-0400 (peptide)
peptide: KAFAKLAARLYRKALARQLGVAA
Turning to B1, the “% activity” value with MAPKAP-K2(h) was 5%; with Met(h), 62%; with NEK6(h) it was 85%; with PAK6(h), 100%; with PDK1(h), 159%; with PTK5(h) it was 129%. Besides, the “% activity” value with Ros(h) was 99%; in the test with TAO3(h), 67%; with Tec(h)activated, 29%; in the test with CDK1/cyclinB(h), 74%; with CHK2(I157T)(h), 41%; with CLK3(h), 84%. For the same molecule, the “% activity” value in the test with EGFR(T790M,L858R)(h) amounted to 78%; in the test with EphA2(h) it was 17%; with Fgr(h) it was 47%.

B2: MMI-0300 (peptide)
peptide: FAKLAARLYRKALARQLGVAA
Regarding B2, the “% activity” value amounted to 5% in the test with MAPKAP-K2(h); 65% in the test with Met(h); 82% with NEK6(h); 104% with PAK6(h); 135% with PDK1(h); 132% with PTK5(h). For the same molecule, the “% activity” value with Ros(h) stood at 95%; in the test with TAO3(h), 77%; with Tec(h)activated it was 56%; with CDK1/cyclinB(h), 73%; with CHK2(I157T)(h) it was 43%; in the test with CLK3(h), 61%. Besides, the “% activity” value in the test with EGFR(T790M,L858R)(h) worked out at 85%; with EphA2(h), 31%; with Fgr(h) it was 60%.
